The text below walks through data of US20250092426, “CAS ENDONUCLEASES AND RELATED METHODS” (Flagship Pioneering Innovations VII, LLC, published 2025).

Where only a bound is given, the exact number is not on record here.

This data set concerns the target T1, CasEnd-24 (synthetic construct).
T1 chain: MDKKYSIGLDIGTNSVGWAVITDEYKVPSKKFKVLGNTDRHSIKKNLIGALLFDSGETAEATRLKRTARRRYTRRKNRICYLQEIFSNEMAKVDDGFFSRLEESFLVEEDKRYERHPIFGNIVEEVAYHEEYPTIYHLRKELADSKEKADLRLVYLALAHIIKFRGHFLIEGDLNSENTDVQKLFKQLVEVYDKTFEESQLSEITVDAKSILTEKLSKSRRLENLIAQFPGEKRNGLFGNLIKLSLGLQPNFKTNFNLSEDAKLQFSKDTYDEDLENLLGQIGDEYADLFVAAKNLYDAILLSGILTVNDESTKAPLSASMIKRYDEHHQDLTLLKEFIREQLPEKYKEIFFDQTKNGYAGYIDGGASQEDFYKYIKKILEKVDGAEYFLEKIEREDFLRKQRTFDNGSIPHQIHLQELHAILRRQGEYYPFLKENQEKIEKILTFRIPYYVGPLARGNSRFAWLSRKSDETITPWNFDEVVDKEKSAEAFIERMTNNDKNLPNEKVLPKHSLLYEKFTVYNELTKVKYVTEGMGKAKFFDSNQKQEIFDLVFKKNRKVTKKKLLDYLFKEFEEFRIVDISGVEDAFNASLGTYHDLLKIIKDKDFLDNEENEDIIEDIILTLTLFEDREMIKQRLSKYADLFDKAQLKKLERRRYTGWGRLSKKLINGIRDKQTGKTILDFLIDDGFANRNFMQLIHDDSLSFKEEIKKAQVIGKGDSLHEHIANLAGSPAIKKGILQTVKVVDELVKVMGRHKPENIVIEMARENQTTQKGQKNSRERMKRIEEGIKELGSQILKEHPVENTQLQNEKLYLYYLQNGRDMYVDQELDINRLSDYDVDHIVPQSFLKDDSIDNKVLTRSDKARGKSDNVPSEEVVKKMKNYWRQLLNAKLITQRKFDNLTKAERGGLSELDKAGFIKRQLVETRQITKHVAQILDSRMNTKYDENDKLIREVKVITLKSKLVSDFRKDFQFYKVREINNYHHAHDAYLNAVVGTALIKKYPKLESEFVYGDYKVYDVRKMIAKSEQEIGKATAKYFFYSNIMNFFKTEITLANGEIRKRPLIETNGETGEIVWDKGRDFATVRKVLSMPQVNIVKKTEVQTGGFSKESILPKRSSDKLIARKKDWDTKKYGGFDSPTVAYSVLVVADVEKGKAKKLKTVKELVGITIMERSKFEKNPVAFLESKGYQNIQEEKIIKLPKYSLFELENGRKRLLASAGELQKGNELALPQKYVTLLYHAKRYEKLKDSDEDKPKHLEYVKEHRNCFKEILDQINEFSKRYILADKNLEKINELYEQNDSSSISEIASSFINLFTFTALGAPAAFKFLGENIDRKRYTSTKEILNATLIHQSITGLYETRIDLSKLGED
Description: cell_activity; +++; HEK293T; PAM not stated. The essentials:
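Editing activity was scored as the fraction of GFP+ cells on day 4 by flow cytometry. BFP-expressing HEK293T cells (250,000) received by nucleofection 200 ng plasmid for the RT-Cas fusion protein and 200 ng template RNA plasmid designed to convert BFP to GFP.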

B1: BFP-to-GFP template RNA ; BFP reporter protospacer (ssRNA ; dsDNA)
RNA: GCCGAAGCACUGCACGCCGUGUUUUAGAGCUAGAAAUAGCAAGUUAAAAUAAGGCUAGUCCGUUAUCAACUUGAAAAAGUGGCACCGAGUCGGUGCACCCUGACGUACGGCGUGCAGUGCUU
DNA 1: GCCGAAGCACTGCACGCCGT
DNA 2: ACGGCGTGCAGTGCTTCGGC
For the molecule B1, the activity was ≥ 100 % of reference.
